One data set has as its target YB-1 (human, UniProt P67809 1-324). The data set is described as follows: fluorescence anisotropy; no PARP1; 100 nM DNA, 0-1600 nM YB-1; 1x RB (composition not in the material); anisotropy at 25 C; EMSA: 37 C 10 min, 7.6% native PAGE in 25 mM Tris-borate pH 8.3 at 4 C; DNA 100 nM (anisotropy), 40 nM in Methods vs 100 nM in Figure 1B legend (EMSA). The note with it: protein: recombinant; tags: His-tag; label: 3'-FAM on ODN1; for gel shift ODN1 also 5'-32P; blunt 32-bp duplex with a nick between ODN2 and ODN3; ODN1:ODN2:ODN3 annealed 1:1.2:1.2. (In general: In fluorescence polarisation assays a small probe gives low polarisation when free and higher when bound to something large.)

The target in a further data set is YB-1;PARP1 (human;human, UniProt P67809;P09874 1-324;1-1014, |). The data set is described as follows: fluorescence anisotropy; 200 nM PARP1, 100 nM DNA, 0-1600 nM YB-1; ternary complex; 1x RB (composition not in the material); anisotropy at 25 C; EMSA: 37 C 10 min, 7.6% native PAGE in 25 mM Tris-borate pH 8.3 at 4 C; DNA 100 nM (anisotropy), 40 nM in Methods vs 100 nM in Figure 1B legend (EMSA). The note with it: protein: recombinant;recombinant; tags: His-tag;; label: 3'-FAM on ODN1; for gel shift ODN1 also 5'-32P; blunt 32-bp duplex with a nick between ODN2 and ODN3; ODN1:ODN2:ODN3 annealed 1:1.2:1.2.
Sequence of YB-1;PARP1 (P67809 whole entry, chain 1 of 2): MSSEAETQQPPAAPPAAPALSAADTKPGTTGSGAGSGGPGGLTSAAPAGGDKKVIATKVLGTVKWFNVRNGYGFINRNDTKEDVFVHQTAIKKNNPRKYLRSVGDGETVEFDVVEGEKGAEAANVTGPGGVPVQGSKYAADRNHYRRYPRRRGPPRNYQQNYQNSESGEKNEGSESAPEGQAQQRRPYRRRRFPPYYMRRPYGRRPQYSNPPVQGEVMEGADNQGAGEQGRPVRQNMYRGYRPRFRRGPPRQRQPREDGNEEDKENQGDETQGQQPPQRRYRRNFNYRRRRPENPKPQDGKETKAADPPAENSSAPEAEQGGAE
Sequence of YB-1;PARP1 (P09874 whole entry, chain 2 of 2): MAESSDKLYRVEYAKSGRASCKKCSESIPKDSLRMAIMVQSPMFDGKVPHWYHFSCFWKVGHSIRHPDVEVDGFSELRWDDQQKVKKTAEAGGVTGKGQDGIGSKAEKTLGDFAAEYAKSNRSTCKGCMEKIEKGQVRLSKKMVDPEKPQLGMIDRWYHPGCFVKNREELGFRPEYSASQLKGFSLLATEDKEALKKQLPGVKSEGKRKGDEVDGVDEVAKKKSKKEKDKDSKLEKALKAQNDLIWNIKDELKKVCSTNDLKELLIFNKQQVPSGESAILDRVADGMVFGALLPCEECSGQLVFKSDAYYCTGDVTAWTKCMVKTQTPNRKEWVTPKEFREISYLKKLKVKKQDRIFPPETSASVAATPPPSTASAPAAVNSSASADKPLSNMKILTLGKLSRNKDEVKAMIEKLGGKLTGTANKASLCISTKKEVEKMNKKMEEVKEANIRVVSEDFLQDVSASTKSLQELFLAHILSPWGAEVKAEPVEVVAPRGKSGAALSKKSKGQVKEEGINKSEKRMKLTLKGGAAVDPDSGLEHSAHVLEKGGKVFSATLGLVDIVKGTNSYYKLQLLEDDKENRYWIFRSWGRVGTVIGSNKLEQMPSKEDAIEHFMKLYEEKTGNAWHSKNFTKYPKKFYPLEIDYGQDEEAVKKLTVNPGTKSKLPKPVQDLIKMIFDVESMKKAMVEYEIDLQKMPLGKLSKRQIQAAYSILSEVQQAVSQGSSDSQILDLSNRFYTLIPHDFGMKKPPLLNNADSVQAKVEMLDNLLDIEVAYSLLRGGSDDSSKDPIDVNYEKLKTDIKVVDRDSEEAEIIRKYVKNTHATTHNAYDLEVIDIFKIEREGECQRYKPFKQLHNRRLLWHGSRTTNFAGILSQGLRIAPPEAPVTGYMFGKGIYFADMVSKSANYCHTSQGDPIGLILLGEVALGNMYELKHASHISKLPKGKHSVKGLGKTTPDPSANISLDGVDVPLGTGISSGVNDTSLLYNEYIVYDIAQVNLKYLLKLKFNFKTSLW

Sequence of YB-1 (P67809 whole entry): as the sequence (P67809 whole entry, chain 1 of 2) above

B1: Nick (ODN1+ODN2+ODN3) (dsDNA)
DNA 1: GGAAGACCCTGACGTTTCCCAACTTTATCGCC
DNA 2: GGCGATAAAGTTGGG
DNA 3: AAACGTCAGGGTCTTCC
For B1, the binding result with YB-1 and with YB-1;PARP1 was “binds” in each case.

(Values after article PMC5955111, “The multifunctional protein YB-1 potentiates PARP1 activity and decreases the efficiency of PARP1 inhibitors”.)
